# Measurements published in US20090298765A1 (Takeda / Millennium, published 2009).
# Non-standard residues stand in square brackets, D forms with d. No end group written: not given here. *: point of attachment. 2‑(indol-3-yl)ethylcarbamoyl = O=C(NCCc1c[nH]c2ccccc12)*; Propanoyl(3-indol-3-yl) = O=C(CCc1c[nH]c2ccccc12)*; Diphenylacetyl = O=C(C(c1ccccc1)c1ccccc1)*; indole‑3‑carbonyl = O=C(c1c[nH]c2ccccc12)*; indole‑3‑acetyl = O=C(Cc1c[nH]c2ccccc12)*; Arg(Me) = CNC(=N)NCCC[C@H](N)C(=O)O; Arg(n-Pr) = n-propylated arginine; Hydrocinnamoyl = O=C(CCc1ccccc1)*; Orn = NCCC[C@H](N)C(=O)O; azaGly = NNC(=O)O
# B1: des(1-3)-Diphenylacetyl-[AzaGly7,Arg(Me)9]MS10 (peptide)
# peptide: Diphenylacetyl-NSF[azaGly]L[Arg(Me)]F-NH2
# SMILES: CNC(=N)NCCC[C@H](NC(=O)[C@H](CC(C)C)NC(=O)NNC(=O)[C@H](Cc1ccccc1)NC(=O)[C@H](CO)NC(=O)[C@H](CC(N)=O)NC(=O)C(c1ccccc1)c1ccccc1)C(=O)N[C@@H](Cc1ccccc1)C(N)=O
# notes: also called Compound No. 268
# B2: des(1-3)-2-(Indol-3-yl)ethylcarbamoyl-[AzaGly7,Arg(Me)9]MS10 (peptide)
# peptide: {2‑(indol-3-yl)ethylcarbamoyl}-NSF[azaGly]L[Arg(Me)]F-NH2
# SMILES: CNC(=N)NCCC[C@H](NC(=O)[C@H](CC(C)C)NC(=O)NNC(=O)[C@H](Cc1ccccc1)NC(=O)[C@H](CO)NC(=O)[C@H](CC(N)=O)NC(=O)NCCc1c[nH]c2ccccc12)C(=O)N[C@@H](Cc1ccccc1)C(N)=O
# notes: also called Compound No. 279
# B3: [Orn9]MS10 (peptide)
# peptide: YNWNSFGL[Orn]F-NH2
# modifications: N-terminus assumed
# SMILES: CC(C)C[C@H](NC(=O)CNC(=O)[C@H](Cc1ccccc1)NC(=O)[C@H](CO)NC(=O)[C@H](CC(N)=O)NC(=O)[C@H](Cc1c[nH]c2ccccc12)NC(=O)[C@H](CC(N)=O)NC(=O)[C@@H](N)Cc1ccc(O)cc1)C(=O)N[C@@H](CCCN)C(=O)N[C@@H](Cc1ccccc1)C(N)=O
# notes: also called Compound No. 314
# B4: des(1)-[D-Asn2,Arg(Me)9]MS10 (peptide)
# peptide: [dN]WNSFGL[Arg(Me)]F-NH2
# modifications: N-terminus assumed
# SMILES: CNC(=N)NCCC[C@H](NC(=O)[C@H](CC(C)C)NC(=O)CNC(=O)[C@H](Cc1ccccc1)NC(=O)[C@H](CO)NC(=O)[C@H](CC(N)=O)NC(=O)[C@H](Cc1c[nH]c2ccccc12)NC(=O)[C@H](N)CC(N)=O)C(=O)N[C@@H](Cc1ccccc1)C(N)=O
# notes: also called Compound No. 216
# B5: des(1)-[D-Asn2,D-Trp3,Arg(Me)9]MS10 (peptide)
# peptide: [dN][dW]NSFGL[Arg(Me)]F-NH2
# modifications: N-terminus assumed
# SMILES: CNC(=N)NCCC[C@H](NC(=O)[C@H](CC(C)C)NC(=O)CNC(=O)[C@H](Cc1ccccc1)NC(=O)[C@H](CO)NC(=O)[C@H](CC(N)=O)NC(=O)[C@@H](Cc1c[nH]c2ccccc12)NC(=O)[C@H](N)CC(N)=O)C(=O)N[C@@H](Cc1ccccc1)C(N)=O
# notes: also called Compound No. 225
# B6: des(1)-[D-Tyr2,Ile3,Arg(Me)9]MS10 (peptide)
# peptide: [dY]INSFGL[Arg(Me)]F-NH2
# modifications: N-terminus assumed
# SMILES: CC[C@H](C)[C@H](NC(=O)[C@H](N)Cc1ccc(O)cc1)C(=O)N[C@@H](CC(N)=O)C(=O)N[C@@H](CO)C(=O)N[C@@H](Cc1ccccc1)C(=O)NCC(=O)N[C@@H](CC(C)C)C(=O)N[C@@H](CCCNC(=N)NC)C(=O)N[C@@H](Cc1ccccc1)C(N)=O
# notes: also called Compound No. 228
# B7: des(1)-[D-Tyr2,Phe3,AzaGly7,Arg(Me)9]MS10 (peptide)
# peptide: [dY]FNSF[azaGly]L[Arg(Me)]F-NH2
# modifications: N-terminus assumed
# SMILES: CNC(=N)NCCC[C@H](NC(=O)[C@H](CC(C)C)NC(=O)NNC(=O)[C@H](Cc1ccccc1)NC(=O)[C@H](CO)NC(=O)[C@H](CC(N)=O)NC(=O)[C@H](Cc1ccccc1)NC(=O)[C@H](N)Cc1ccc(O)cc1)C(=O)N[C@@H](Cc1ccccc1)C(N)=O
# notes: also called Compound No. 254
# B8: des(1-3)-Indole-3-acetyl-[AzaGly7,Arg(Me)9]MS10 (peptide)
# peptide: {indole‑3‑acetyl}-NSF[azaGly]L[Arg(Me)]F-NH2
# SMILES: CNC(=N)NCCC[C@H](NC(=O)[C@H](CC(C)C)NC(=O)NNC(=O)[C@H](Cc1ccccc1)NC(=O)[C@H](CO)NC(=O)[C@H](CC(N)=O)NC(=O)Cc1c[nH]c2ccccc12)C(=O)N[C@@H](Cc1ccccc1)C(N)=O
# notes: also called Compound No. 266
# B9: [D-Tyr1,Gln4,Arg(Me)9]MS10 (peptide)
# peptide: [dY]NWQSFGL[Arg(Me)]F-NH2
# modifications: N-terminus assumed
# SMILES: CNC(=N)NCCC[C@H](NC(=O)[C@H](CC(C)C)NC(=O)CNC(=O)[C@H](Cc1ccccc1)NC(=O)[C@H](CO)NC(=O)[C@H](CCC(N)=O)NC(=O)[C@H](Cc1c[nH]c2ccccc12)NC(=O)[C@H](CC(N)=O)NC(=O)[C@H](N)Cc1ccc(O)cc1)C(=O)N[C@@H](Cc1ccccc1)C(N)=O
# B10: [D-Tyr1,Ser4,Arg(Me)9]MS10 (peptide)
# peptide: [dY]NWSSFGL[Arg(Me)]F-NH2
# modifications: N-terminus assumed
# SMILES: CNC(=N)NCCC[C@H](NC(=O)[C@H](CC(C)C)NC(=O)CNC(=O)[C@H](Cc1ccccc1)NC(=O)[C@H](CO)NC(=O)[C@H](CO)NC(=O)[C@H](Cc1c[nH]c2ccccc12)NC(=O)[C@H](CC(N)=O)NC(=O)[C@H](N)Cc1ccc(O)cc1)C(=O)N[C@@H](Cc1ccccc1)C(N)=O
# Target: T1, human OT7T175 (metastin receptor) (human, UniProt Q969F8 1-398)
# T1 construct: expressed on CHO cells; also called hOT7T175; hOT7T175-expressed CHO cells
# T1 sequence (Q969F8 whole entry L364H): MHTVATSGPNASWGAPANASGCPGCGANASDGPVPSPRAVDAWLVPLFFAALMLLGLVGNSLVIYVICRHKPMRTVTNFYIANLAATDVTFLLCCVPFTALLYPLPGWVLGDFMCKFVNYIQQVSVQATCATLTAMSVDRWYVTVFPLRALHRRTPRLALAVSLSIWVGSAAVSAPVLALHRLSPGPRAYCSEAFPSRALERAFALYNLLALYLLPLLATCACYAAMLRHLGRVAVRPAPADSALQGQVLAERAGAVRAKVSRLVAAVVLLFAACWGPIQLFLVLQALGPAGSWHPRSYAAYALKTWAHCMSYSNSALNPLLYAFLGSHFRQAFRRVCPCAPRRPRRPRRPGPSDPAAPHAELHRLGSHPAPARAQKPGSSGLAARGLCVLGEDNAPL
# Assay: competition with Cy-5 metastin (40-54) on hOT7T175-CHO cells, FMAT
row,Binder,IC50 [nM]
1,B1,550
2,"{Propanoyl(3-indol-3-yl)}-NSF[azaGly]L[Arg(Me)]F-NH2 (also: also named 1-(3-indolyl)propionyl cap, also called Compound No. 260) [des(1-3)-3-(3-Indolyl)propionyl-[AzaGly7,Arg(Me)9]MS10]",320
3,"YNWNSFGLXF (Nar9; C-terminal amide, also called Compound No. 310) [[Nar9]MS10]",310
4,B2,29
5,B3,470
6,"YNWNSFGLXF (Nar(Me)9; C-terminal amide, also called Compound No. 311) [[Nar(Me)9]MS10]",470
7,"[dY][dN]WNSF[azaGly]L[Arg(Me)]F-NH2 (also called Compound No. 237) [[D-Tyr1,D-Asn2,AzaGly7,Arg(Me)9]MS10]",27
8,"[dY]NWNSFGL[Arg(Me)]F-NH2 (also: bond 6-7 CONH replaced by CSNH (thioamide), also called Compound No. 296) [[6Ψ7,CSNH,D-Tyr1,Arg(Me)9]MS10]",14
9,B4,700
10,B5,410
11,B6,40
12,B7,11
13,"Hydrocinnamoyl-NSF[azaGly]L[Arg(Me)]F-NH2 (also called Compound No. 269) [des(1-3)-3-Phenylpropionyl-[AzaGly7,Arg(Me)9]MS10]",470
14,"{indole‑3‑carbonyl}-NSF[azaGly]L[Arg(Me)]F-NH2 (also called Compound No. 265) [des(1-3)-Indole-3-carbonyl-[AzaGly7,Arg(Me)9]MS10]",95
15,B8,230

# Target: T1, human OT7T175 (metastin receptor)
# Assay: cell-based or functional assay
row,Binder,Ca ion level-increasing activity (FLIPR)
1,B9,0.5 x Metastin (1-54)
2,"[dY][dN]WNSF[azaGly]L[Arg(Me)]F-NH2 (also called Compound No. 237) [[D-Tyr1,D-Asn2,AzaGly7,Arg(Me)9]MS10]",3 x Metastin (1-54)
3,B4,1 x Metastin (1-54)
4,B5,1 x Metastin (1-54)
5,B6,5 x Metastin (1-54)
6,B7,1 x Metastin (1-54)
7,"[dY]NWNSFGL[Arg(n-Pr)]F-NH2 [[D-Tyr1,Arg(n-Pr)9]MS10]",0.5 x Metastin (1-54)
8,B10,0.5 x Metastin (1-54)

# Target: T1, human OT7T175 (metastin receptor)
# Assay: cell-based or functional assay
# Remark: another data set of the same source
row,Binder,Ca ion level-increasing activity (FLIPR)
1,B1,1 x Metastin (1-54)
2,"{Propanoyl(3-indol-3-yl)}-NSF[azaGly]L[Arg(Me)]F-NH2 (also: also named 1-(3-indolyl)propionyl cap, also called Compound No. 260) [des(1-3)-3-(3-Indolyl)propionyl-[AzaGly7,Arg(Me)9]MS10]",5 x Metastin (1-54)
3,"YNWNSFGLXF (Nar9; C-terminal amide, also called Compound No. 310) [[Nar9]MS10]",3 x Metastin (1-54)
4,B2,5 x Metastin (1-54)
5,B3,1 x Metastin (1-54)
6,"YNWNSFGLXF (Nar(Me)9; C-terminal amide, also called Compound No. 311) [[Nar(Me)9]MS10]",1 x Metastin (1-54)
7,"[dY]NWNSFGL[Arg(Me)]F-NH2 (also: bond 6-7 CONH replaced by CSNH (thioamide), also called Compound No. 296) [[6Ψ7,CSNH,D-Tyr1,Arg(Me)9]MS10]",3 x Metastin (1-54)
8,"Hydrocinnamoyl-NSF[azaGly]L[Arg(Me)]F-NH2 (also called Compound No. 269) [des(1-3)-3-Phenylpropionyl-[AzaGly7,Arg(Me)9]MS10]",3 x Metastin (1-54)
9,"{indole‑3‑carbonyl}-NSF[azaGly]L[Arg(Me)]F-NH2 (also called Compound No. 265) [des(1-3)-Indole-3-carbonyl-[AzaGly7,Arg(Me)9]MS10]",3 x Metastin (1-54)
10,B8,2 x Metastin (1-54)

# Target: T1, human OT7T175 (metastin receptor)
# Assay: cell-based or functional assay
# Remark: another data set of the same source
row,Binder,"Ca ion level-increasing activity (FLIPR, 40 s) [EC50/MS10 EC50]"
1,B1,4.5
2,"{Propanoyl(3-indol-3-yl)}-NSF[azaGly]L[Arg(Me)]F-NH2 (also: also named 1-(3-indolyl)propionyl cap, also called Compound No. 260) [des(1-3)-3-(3-Indolyl)propionyl-[AzaGly7,Arg(Me)9]MS10]",4.3
3,"YNWNSFGLXF (Nar9; C-terminal amide, also called Compound No. 310) [[Nar9]MS10]",2
4,B2,6.4
5,B3,4.4
6,"YNWNSFGLXF (Nar(Me)9; C-terminal amide, also called Compound No. 311) [[Nar(Me)9]MS10]",6.2
7,"[dY]NWNSFGL[Arg(Me)]F-NH2 (also: bond 6-7 CONH replaced by CSNH (thioamide), also called Compound No. 296) [[6Ψ7,CSNH,D-Tyr1,Arg(Me)9]MS10]",5.2
8,"Hydrocinnamoyl-NSF[azaGly]L[Arg(Me)]F-NH2 (also called Compound No. 269) [des(1-3)-3-Phenylpropionyl-[AzaGly7,Arg(Me)9]MS10]",3.4
9,"{indole‑3‑carbonyl}-NSF[azaGly]L[Arg(Me)]F-NH2 (also called Compound No. 265) [des(1-3)-Indole-3-carbonyl-[AzaGly7,Arg(Me)9]MS10]",4.4
10,B8,5.4
